Laboratory results: paper PMC7366829 (Acta biomaterialia, 2020)

Target: the molecule itself
Experiment: SEC-MALS

B1: BOR1 from Arabidopsis thaliana (AtBOR1), purified in DDM, GFP-8His tag cleaved (natural protein)
chain: not shown
stoichiometry N: 2
